The record followed here is patent publication US20240218054A1 (MABLOC, published 2024).

B1: ADI-42225 (antibody, V domains shown)
VH: QVQLQESGPGLVKPSGTLSLTCAVSGGSITSSNWWSWVRQPPGKGLEWIGDIYHSGSTSYNPSLKSRVTISVDKSKNHFSLKLTSVTAADTAVYYCARIAAGYSTSWYYFDYWGQGTLVTVSS
VL: QSALTQPPSVSAAPGQKVTISCSGSSSNIGNSYVSWYQQVPGTAPKLLIYDNNKRPSGIPDRFSGSKSGTSATLGITGLQAGDEADYYCGTWDTSLSAGRVFGRGTKLTVL
notes: full-length IgG; also called Antibody Number 10
B2: ADI-48462 (antibody, V domains shown)
VH: QVQLVQSGGGVVQPGRSLRLSCAASGFTFSSYGMHWVRQAPGKGLEWVAVIWYDGSNKYYADSVKGRFTISRDNSKNTLYLQMNSLRAEDTAVYYCARDYYGSGDGYFDYWGQGTTVTVSS
VL: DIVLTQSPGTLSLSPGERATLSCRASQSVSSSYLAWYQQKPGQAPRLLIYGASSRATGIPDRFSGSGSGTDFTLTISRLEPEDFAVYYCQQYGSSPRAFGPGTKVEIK
notes: full-length IgG; also called Antibody Number 100
B3: ADI-42149 (antibody, V domains shown)
VH: QVQLVQSGAEVRKPGASVKVSCKASGYTFTSYGISWVRQAPGQGLEWMGWISTYNGNTNYAQKLQGRVTMTTDTSTSTAYMELRSLRSDDTAVYYCAREIDSNYVFDYWGQGTLVTVSS
VL: QSVLTQPASVSGSPGQSITISCTGTSSDVGGYNYVSWYQQHPGKAPKLMIYEVSNRPSGVSNRFSGSKSGNTASLTISGLQAEDEADYYCSSYTSSGTNIFGTGTKLTVL
notes: full-length IgG
B4: ADI-46741 (antibody, V domains shown)
VH: EVQLVESGPGLVKPSETLSLTCTVSGGSISSYYWSWIRQPPGKGLEWIGYIYYSGSTNYNPSLKSRVTISVDTSKNQFSLKLSSVTAADTAVYYCARETCSGGSCYYRVGSAFDIWGQGTTVTVSS
VL: SYELIQLPSASVAPGKTARITCGGNNIGSKSVHWYQQKPGQAPVLVVYDDSDRPSGIPERFSGSNSGNTATLTISRVEAGDEADYYCQVWDSSSDHEVFGGGTKLTVL
notes: full-length IgG; also called Antibody Number 115
B5: ADI-49039 (antibody, V domains shown)
VH: QVQLQESGPGLVKPSETLSLTCAVSGYSISSGFYWGWIRQPPGKGLEWIGSMYQSGITYYNPSLKSRVTISVDTSKSQFSLKLTSVTAADTAMYYCARNAPENYYGSGRESFDIWGQGTMVTVSS
VL: QSVLTQPPSVSAAPGQKVTISCSGSSSNIGNNYVSWYQQLPGAAPKLLIYDNKKRPSGIPDRFSGSASGTSATMGITGLQTGDEADYYCGTWDSSLSAWVFGGGTKVTVL
notes: full-length IgG; also called Antibody Number 1
B6: ADI-42229 (antibody, V domains shown)
VH: B5 VH with Q54H, S77N, M120T
VL: B5 VL with L4V, L40F, G42R, A43T, M74L
notes: full-length IgG; also called Antibody Number 3
B7: ADI-49139 (antibody, V domains shown)
VH: EVQLVETGSGLVRPSGTLSLTCAVSGDSISSNNWWSWVRQPPGKGLEWIGEIYHSGSTSYNPSLKSRVTISIDKSNNHFSLKLTSVTAADTAVYYCAKDMWAGTTTNWFGPWGQGTLVTVSS
VL: QSVLTQPPSVSAAPGQKVTISCSGSSSNIGYSHVSWYQQLPGTAPKVLIYDNDKRPSGIPDRFSGSKSGTSATLGITGLQTGDEADYYCGTWDTSLGVVFGGGTKLTVL
notes: full-length IgG; also called Antibody Number 11
B8: ADI-42172 (antibody, V domains shown)
VH: QVQLVESGGGVVQPGRSLRLSCAASGFTFSSYGMHWVRQAPGKGLEWVAVMSYDGSNKYYADSLKGRFTISRDNSKNTLYLQMNSLRAEDTAVYFCAKAYDSSAYYYLDYWGQGTLVTVSS
VL: EIVLTQSPSTLSASVGDRVTITCRASQSISDWLAWYQQKPGKAPNLLIYRASSLESGVPSRFSGSGSGTEFTLTISSLQPDDFATYYCQQYNRYPYTFGQGTKVEIK
notes: full-length IgG; also called Antibody Number 117
B9: ADI-42178 (antibody, V domains shown)
VH: B8 VH with Q1E, V12I, T28N, M51I, L64V, Y94H, F95Y, S103R, A104G
VL: B8 VL with E1D, V3Q, Y36F, N45K, S53G, S56T, P95S
notes: full-length IgG
B10: ADI-42227 (antibody, V domains shown)
VH: EVQLLESGAEVKEPGSSVKVSCKPSGGTFSSYVISWVRQAPGQGLEWMGGIIPIFGTPNYAQKFQGRVTITADDSTSTAHMELSSLTSDDTAVYYCARETYYYGSGSVPVHDWGQGTLVTVSS
VL: EIVMTQSPSSLSASVGDRVTITCRASQGIRNDLGWYQQKPGKAPKRLIYAASSLQSGVPSRFSGSGSGREFTLTISSLQPEDFATYYCLQHNTYPWTFGQGTKVEIK
notes: full-length IgG
B11: ADI-42181 (antibody, V domains shown)
VH: EVQLVESGGGLVQPGGSLRLSCAASGFTFSNYWMNWVRQAPGKGLEWVANIKQDGSEKYYVDSVKGRFTISRDNAKNSLYLQMNSLRAEDTAVYYCARKLSYSSGWYYFDYWGQGTLVTVSS
VL: DIVMTQTPATLSVSPGERATLSCRASQSVSSNVAWYQQKPGQAPRLLIHGASTRATGIPARFSGSGSGTEFTLTISSLQSEDFAVYYCQQYNNWPPLTFGGGTKLEIK
notes: full-length IgG
B12: ADI-45127 (antibody, V domains shown)
VH: EVQLVESGPVLVKPTETLRLTCTVSGFSLSNTKLGVSWIRQPPGKALEWLAHIFSNAEKSSSKSLKSRLSISQDTSKSLVVLTMTNMDPVDTATYFCARIPVEYGTPRGSFDTWGQGTTVTVSS
VL: QSVLTQPPSASGSPGQSVTISCAGTRSDVGGYNFVSWYQQHPGKAPKLLIYEVNKRPSGVPDRFSGSKSANTASLTVSGLQAEDEAEYFCSSYGGNNDLVFGGGTKVTVL
notes: full-length IgG; also called Antibody Number 101
B13: ADI-45074 (antibody, V domains shown)
VH: QVQLQQWGAGLLKPSETLSLTCAVYGGSFSGYYWSWIRQPPGKGLEWIGEINHRGSTDYNPSLKSRVTMSVDTSKNQFSLRLSSVTAADTALYYCARGRLAWGLRGQKSPNFFAYWGQGATVTVSS
VL: DIQMTQSPDSLAVSLGERATINCKSSQSVFYSSNSQNYLAWYQQKPGQPPKLLIYWASTRESGVPDRFSGSGSATDFSLTISSLQAEDVAVYYCQQFHSPPWTFGQGTKLEIK
notes: full-length IgG
B14: ADI-42200 (antibody, V domains shown)
VH: EVQLVESGGGVVQPGRSLRLSCAASGLTFSTYTLHWVRQAPGKGLEWVAVISSDGGNKYYADSVKGRFTISRDSSKNTLYLQMNSLRTEDTAVYYCAGGSPDYWGQGALVTVSS
VL: EIVMTQSPATLSLSPGERGTLSCRTSQSVSSFLAWYQQKPGQAPRLLMYDASNRATGIPARFSGSGSGTDFTLTISSLEPEDFAVYYCQQRSNWPYTFGQGTKVDIK
notes: full-length IgG; also called Antibody Number 102
B15: ADI-50203 (antibody, V domains shown)
VH: EVQLVESGGGVVQPGRSLRLSCVPSGFTFSSYAMHWVRQAPGKGLEWVAMMSYDGGDKNYADSVKGRFTISRDNSKNTLYLQMRSLRAEDTAIYYCARAYDSRGYYYIEHWGQGTLVTVSS
VL: GIQLTQSPSTLSASVGDRVTITCRASQSVSDWLAWYQQKPGRAPNLLIYRASSLQSGVPSRFSGSGSGTEFTLTINSLQPDDFATYYCQQYKTYWTFGQGTKVEIK
notes: full-length IgG; also called Antibody Number 103
B16: ADI-50534 (antibody, V domains shown)
VH: EVQLQESGPGLVKPSETLSLTCTVSGGSISSSSYYWGWIRQPPGKGLEWIGSIYYSGSTYYNPSLKSRVTISVDTSKNQFSLKLSSVTAADTAVYYCARHSSGSYYLAGYYFDYWGQGTLVTVSS
VL: NFMLTQPHSVSESPGKTVTISCTRSSGSIASNYVQWYQQRPGSAPTTVIYEDNQRPSGVPDRFSGSIDSSSNSASLTISGLKTEDEADYYCQSYDSSNWVFGGGTKLTVL
notes: full-length IgG
B17: ADI-42141 (antibody, V domains shown)
VH: QVQLVQSGGGLVQPGGSLRLSCAASGFTFSDHYMDWVRQAPGKGLEWVGRTRNKANSYTTKYAASVKGRFTISRDDSKNSLYLQMNSLKTEDTAVYYCARVEGGAWGAFDIWGQGTTVTVSS
VL: SYVLTQPPSVSVSPGQTARITCSGDALPKQYGYWYQQKPGQAPVLVIYKDSERPSGIPERFSGSSSGTTVTLTISGVQAEDEADYYCQSADRSGTVVFGGGTKLTVL
notes: full-length IgG; also called Antibody Number 111
B18: ADI-45126 (antibody, V domains shown)
VH: EVQLVESGGGLVQPGGSLRLSCAASGFTFSDHYMDWVRQAPGKGLEWVGRSTNKPNSYTTTYAASVRGRFTISRDESKNSLYLQMNSLKSDDTAVYYCVTTTVILFDYWGQGTLVTVSS
VL: SYELTQPPSVSVSPGQTARITCSGDALPKKYVYWFQQKSGQAPVLVIYEDRRGPSGIPERFSGSTSGTMATLTIRGAQVEDEADYFCYSTDSSGLLGVFGGGTKLTVL
notes: full-length IgG; also called Antibody Number 106
B19: ADI-42216 (antibody, V domains shown)
VH: QVTLKESGPVLVKPTETLTLTCTVSGFSLSNTKMGVTWIRQPPGKALEWLAHIFSNDEKSCNTSLKSRLTISKDTSKSQVVLTMTNMDPVDTATYYCARLWFTEYPGAFDIWGQGTMVTVSS
VL: QAVVTQPPSASGSPGQSVTISCTGTSSDVGGYNYVSWYQQHPGKAPKLMVYEVTKRPSGVPDRFSGSKSGNAASLTVSGLQAEDEAEYYCSSYAGSNALVFSGGTKLTVL
notes: full-length IgG; also called Antibody Number 112
B20: ADI-49140 (antibody, V domains shown)
VH: EVQLVESGGGLVQPGGSLRLSCAASGFTFSDHYMDWVRQAPGRGLEWVGRSRNKVNSYTTDYAASVKGRFTISRDDSKNSLFLRMNSLKTEDTAVYYCARLTDSGYDDWGLGTLVTVSS
VL: QPELTQPPSVSVSPGQTARITCSGDALSKQYAYWYQQKPGQAPVVVIYKDSERPSGIPERFSGSRSGTTVTLTISGVQAEDEADYYCHSPDSHVVFGGGTKLTVL
notes: full-length IgG
B21: ADI-49041 (antibody, V domains shown)
VH: EVQLVESGGGLVKPGGSLRLSCAASGFTFSHAWMTWVRQAPGKGLEWVGRIKSETDGGTANYAAPVKGRFTISRDDSKNTVYLQMVSLKTEDTAVYYCATAGIFGVVIMKGFDHWGQGTTVTVSS
VL: DIVMTQSPSTLSASVGDRVVITCRASQSISNWLAWYQQKSGKAPKLLIYKASRLESGVPSTFSGSGSGTEFTLTISSLQADDFASYYCQQYNDYPWTFGQGTKVEIK
notes: full-length IgG
B22: ADI-42195 (antibody, V domains shown)
VH: EVQLLESGGGMVQPGRSLRLSCAASGFTFDDYDMHWVRQGPGKGLEWVSGISWNSGGRGYADSVKGRFTISRDNAKNSLYLQMNSLRVEDTALYYCVKDYCSGGRCYSFDYWGQGTLVTVSS
VL: DIQMTQSPSSLSASVGDRVTITCQASQDISNYLNWYQQKPGKAPKLLIYDVSKLKTGVPPRFSGSGSGTDFTFTISSLQPEDIATYYCQQWGTFGQGTKVDIK
notes: full-length IgG; also called Antibody Number 116
B23: ADI-50220 (antibody, V domains shown)
VH: EVQLVESGGGVVQPGRSLRLSCAASGFIFSSNSMHWVRQAPGKGLKWVAIISNDGRNKFYADAVKGRFTVSRDNSKNTLYLQMNSLRPEDTAVYYCARGYDSSGYWGFGDNWGQGTLVTVSS
VL: DIQVTQSPSTLSASVGDRVSITCRASQTISSWLAWYQQKPGKAPKLLMYKASNLQSGVPSRFTGSGSGTEFTLTISSLQPDDFATYYCQQYYSYPYTFGPGTKVDIK
notes: full-length IgG; also called Antibody Number 110

Residue numbers refer to the chain shown, from its start.

For this assay, the target named is T1, recombinant YFV E protein (soluble E, sE; YFV Asibi strain) (Yellow fever virus, Asibi strain, UniProt Q6DV88 286-678).
T1 construct: also called YFV E antigen; YFV E monomer
T1 sequence (Q6DV88 286-678): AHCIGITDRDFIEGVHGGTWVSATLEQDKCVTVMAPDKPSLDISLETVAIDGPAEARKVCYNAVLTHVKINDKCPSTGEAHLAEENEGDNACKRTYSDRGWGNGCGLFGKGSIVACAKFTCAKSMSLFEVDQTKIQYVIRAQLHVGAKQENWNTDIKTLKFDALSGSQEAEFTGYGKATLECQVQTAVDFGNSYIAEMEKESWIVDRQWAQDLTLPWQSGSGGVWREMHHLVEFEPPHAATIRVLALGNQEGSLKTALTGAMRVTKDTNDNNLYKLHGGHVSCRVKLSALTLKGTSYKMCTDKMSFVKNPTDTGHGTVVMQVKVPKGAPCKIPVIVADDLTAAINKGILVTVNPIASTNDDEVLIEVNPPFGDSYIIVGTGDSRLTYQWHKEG
Nature of the assay: BLI monovalent (IgG on tip).
Consider B1, for which the Kd (as a rule, a measure of binding affinity in units of concentration) was 31.5 nM.
Next, B2: > 100 nM.
In the case of B3 it was 177 nM; in that of B4, > 100 nM; in that of B5, 415 nM.
In the case of B6 it was 7.87 nM.
With B7, the Kd was 3.45 nM.
In the case of B8 it was 129 nM; in that of B9, 34.4 nM.
Next, B10: 0.658 nM; B11: 31.5 nM.
In the case of B12 it was 6.69 nM; in that of B13, 0.699 nM.
As for B14, the Kd was determined as 5.63 nM.
In the case of B15 it was 22.4 nM.
In the case of B16 it was > 100 nM; in that of B17, 1.75 nM.
Next, B18: 1.68 nM; B19: 11.4 nM; B20: 1.04 nM.
B21: the Kd was 0.997 nM.
On to B22, for which the Kd is 1.86 nM.
Next, B23: 3.64 nM.
